Laboratory results as given in PMC3306366, “Oligomeric Status and Nucleotide Binding Properties of the Plastid ATP/ADP Transporter 1: Toward a Molecular Understanding of the Transport Mechanism” (PLoS ONE, 2012).
Positions count from the first letter of the chain named. Where two headings read alike, the source gives them in different places. Values belong to the molecule of their own block, whether it stands above or below them.

How the values were obtained:
[1] = biological target: T1, NTT1 (plastid / chloroplast ATP/ADP transporter 1) (Arabidopsis thaliana, UniProt Q39002); experiment: tryptophan fluorescence quenching; type: binding; conditions: 20 mM Tris pH 8, 10 mM NaCl, 0.1% LAPAO, 25°C; no Mg2+, no Pi; one-site fit; read-out: Affinity
T1 construct: gene AATP1; mature form lacking first 79 residues (transit peptide), N-terminal His-tag, C-terminal StreptagII; E. coli; purified in LAPAO; monomers and dimers
T1 sequence (Q39002 80-624): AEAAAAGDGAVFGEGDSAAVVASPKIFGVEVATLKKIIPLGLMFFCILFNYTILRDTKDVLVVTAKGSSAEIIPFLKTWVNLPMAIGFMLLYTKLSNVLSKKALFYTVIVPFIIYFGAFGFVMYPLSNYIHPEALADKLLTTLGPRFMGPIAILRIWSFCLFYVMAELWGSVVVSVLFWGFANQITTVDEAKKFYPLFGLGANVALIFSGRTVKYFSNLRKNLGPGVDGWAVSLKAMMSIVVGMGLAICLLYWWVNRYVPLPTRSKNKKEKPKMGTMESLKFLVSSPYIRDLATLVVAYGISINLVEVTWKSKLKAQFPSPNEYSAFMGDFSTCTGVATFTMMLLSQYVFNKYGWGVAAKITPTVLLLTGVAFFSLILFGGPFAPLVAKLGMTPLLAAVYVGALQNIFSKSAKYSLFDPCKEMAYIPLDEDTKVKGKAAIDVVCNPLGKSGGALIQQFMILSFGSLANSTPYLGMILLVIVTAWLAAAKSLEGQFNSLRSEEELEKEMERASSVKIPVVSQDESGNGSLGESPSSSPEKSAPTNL
Source text: tryptophan fluorescence quenching on NTT1 (plastid / chloroplast ATP/ADP transporter 1)

[2] = biological target: T2, NTT1 (plastid / chloroplast ATP/ADP transporter 1) (Arabidopsis thaliana, UniProt Q39002, E246K); experiment: tryptophan fluorescence variation; type: binding
T2 construct: gene AATP1; mature form lacking first 79 residues (transit peptide), N-terminal His-tag, C-terminal StreptagII; E. coli; purified in LAPAO; monomers and dimers
T2 sequence (Q39002 80-624 E246K): T1 sequence (Q39002 80-624) with E167K
Source text: (§1) tryptophan fluorescence variation on NTT1 (plastid / chloroplast ATP/ADP transporter 1)

[3] = biological target: T3, NTT1 (plastid / chloroplast ATP/ADP transporter 1) (Arabidopsis thaliana, UniProt Q39002, K528E); experiment: tryptophan fluorescence variation; type: binding; conditions: read-out: Affinity for ADP
T3 construct: gene AATP1; mature form lacking first 79 residues (transit peptide), N-terminal His-tag, C-terminal StreptagII; E. coli; purified in LAPAO; monomers and dimers
T3 sequence (Q39002 80-624 K528E): T1 sequence (Q39002 80-624) with K449E
Source text: as §1

[4] = biological target: T4, NTT1 (plastid / chloroplast ATP/ADP transporter 1) (Arabidopsis thaliana, UniProt Q39002, K528R); experiment: tryptophan fluorescence variation; type: binding
T4 construct: gene AATP1; mature form lacking first 79 residues (transit peptide), N-terminal His-tag, C-terminal StreptagII; E. coli; purified in LAPAO; monomers and dimers
T4 sequence (Q39002 80-624 K528R): T1 sequence (Q39002 80-624) with K449R
Source text: as §1

NTT1ΔC = biological target: T5, NTT1ΔC (Arabidopsis thaliana, UniProt Q39002); experiment: tryptophan fluorescence variation, two-site fit; type: binding; conditions: 20 mM Tris pH 8, 10 mM NaCl, 0.1% LAPAO, 25°C, stronger site of two-site fit
T5 construct: gene AATP1; mature form (first 79 residues removed) with last 41 residues deleted (deletion borders computed from a recalled length of 624); tagged; E. coli; purified in LAPAO; partly aggregated
T5 sequence (Q39002 80-583): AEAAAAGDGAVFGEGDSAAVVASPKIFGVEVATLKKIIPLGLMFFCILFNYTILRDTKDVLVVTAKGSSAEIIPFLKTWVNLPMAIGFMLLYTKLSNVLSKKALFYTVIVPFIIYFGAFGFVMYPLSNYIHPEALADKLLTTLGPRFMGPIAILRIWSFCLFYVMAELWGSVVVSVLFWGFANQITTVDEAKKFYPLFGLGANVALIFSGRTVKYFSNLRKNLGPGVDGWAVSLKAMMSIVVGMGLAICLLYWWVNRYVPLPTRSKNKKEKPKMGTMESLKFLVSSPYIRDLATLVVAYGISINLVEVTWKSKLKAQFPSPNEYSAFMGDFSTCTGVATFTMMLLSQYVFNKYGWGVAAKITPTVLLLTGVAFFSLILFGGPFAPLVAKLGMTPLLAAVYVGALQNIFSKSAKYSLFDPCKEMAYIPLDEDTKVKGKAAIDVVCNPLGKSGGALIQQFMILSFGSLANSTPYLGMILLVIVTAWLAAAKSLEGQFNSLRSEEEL
Source text: tryptophan fluorescence variation, two-site fit on NTT1ΔC

[5] = biological target: T6, NTT1 (plastid / chloroplast ATP/ADP transporter 1) (Arabidopsis thaliana, UniProt Q39002, K156R); experiment: tryptophan fluorescence variation; type: binding; conditions: read-out: Affinity for ATP
T6 construct: gene AATP1; mature form lacking first 79 residues (transit peptide), N-terminal His-tag, C-terminal StreptagII; E. coli; purified in LAPAO; monomers and dimers
T6 sequence (Q39002 80-624 K156R): T1 sequence (Q39002 80-624) with K77R
Source text: as §1

[6] = biological target: Chloroplast ATP/ADP transporter 1 (NTT1), mature form (Arabidopsis thaliana); experiment: AUC; sedimentation velocity, NTT1 solubilised and purified in FC12; 42,000 rpm, 10°C
[7] = biological target: Chloroplast ATP/ADP transporter 1 (NTT1), mature form (Arabidopsis thaliana); experiment: Multiple Angle Laser Light Scattering; purified NTT1 in LAPAO; data not shown
[8] = biological target: Chloroplast ATP/ADP transporter 1 (NTT1), mature form (Arabidopsis thaliana); experiment: AUC; sedimentation velocity, purified protein in 20 mM Tris pH 8, 100 mM NaCl, 0.1% LAPAO, 3 mM desthiobiotin; 42,000 rpm, 10°C; c(s) analysis, absorbance and interference
[9] = biological target: Chloroplast ATP/ADP transporter 1 (NTT1), mature form (Arabidopsis thaliana); experiment: AUC; sedimentation velocity, NTT1 solubilised and purified in β-DDM; 42,000 rpm, 10°C
[10] = biological target: Chloroplast ATP/ADP transporter 1 (NTT1), mature form (Arabidopsis thaliana); experiment: AUC; sedimentation velocity, NTT1 exchanged from detergent into amphipols; 42,000 rpm, 10°C
[11] = substrate: Nc1ncnc2c1ncn2[C@@H]1O[C@H](COP(=O)(O)OP(=O)(O)OP(=O)(O)O)[C@@H](O)[C@H]1O; experiment: radioactive ATP uptake in whole E. coli cells; type: cell-based, Arabidopsis thaliana; conditions: transport Km; C-terminal Mistic fusion
Source text: radioactive ATP uptake in whole E. coli cells on […]

[12] = substrate: Nc1ncnc2c1ncn2[C@@H]1O[C@H](COP(=O)(O)OP(=O)(O)O)[C@@H](O)[C@H]1O; experiment: ATP/ADP exchange by luciferase luminescence, whole E. coli cells; type: cell-based, Arabidopsis thaliana; conditions: transport Km; C-terminal Mistic fusion
Source text: ATP/ADP exchange by luciferase luminescence, whole E. coli cells on NTT1mis

Molecule: Nc1ncnc2c1ncn2[C@@H]1O[C@H](COP(=O)(O)OP(=O)(O)O)[C@@H](O)[C@H]1O [ADP]
Kd [1]: 8.6 ± 1.5 µM | Kd ([2]; read-out: Affinity for ADP): 14 ± 5.1 µM | Kd [3]: 19 ± 24.1 µM | Kd ([4]; read-out: Affinity for ADP): 33.5 ± 22.3 µM | Kd (NTT1ΔC; read-out: Affinity for ADP): 0.6 ± 0.7 µM

B1: NTT1mis (Arabidopsis thaliana) (protein)
chain: T1 sequence (Q39002 80-624)
notes: expressed in E. coli, assayed in whole cells; with Protein mistic
Km [11]: 13.2 ± 5.3 µM | Km [12]: 12.0 ± 5.2 µM

Further lines, results first:

Kd [1]: 4.2 ± 0.7 µM | Kd ([2]; read-out: Affinity for ATP): 1.9 ± 1.7 µM | Kd [5]: 91.2 ± 58.8 µM | Kd ([4]; read-out: Affinity for ATP): > 1000 µM | Kd (NTT1ΔC; read-out: Affinity for ATP): 0.7 ± 0.5 µM
Molecule: Nc1ncnc2c1ncn2[C@@H]1O[C@H](COP(=O)(O)OP(=O)(O)OP(=O)(O)O)[C@@H](O)[C@H]1O [ATP]

dimer (% of the three species) [6]: 35% | tetramer (% of the three species) [6]: 18% | stoichiometry N [7]: 4 | dimer (% of the three species) [8]: 35% | stoichiometry N [8]: 2 | tetramer (% of the three species) [8]: 23% | dimer (% of the three species) [9]: 29% | dimer (% of the three species) [10]: 33% | tetramer (% of the three species) [10]: 23%
Molecule: Chloroplast ATP/ADP transporter 1 (NTT1), mature form (natural protein)
